The target of experiment [1] is T1, recombinant human DR3-human IgG1-Fc (soluble human DR3(EC)-hG1Fc) (human).
T1 construct: also called huDR3-huFc; hDR3(EC)-hG1Fc
As to the kind of experiment: SPR (Biacore 3000), huDR3-huFc amine-coupled on CM5, Fab 12 to 0.375 nM, 1:1 Langmuir fit, 25 C; run 2. The procedure: (§1) Fab antibody fragments of the above mentioned antibodies were obtained following the Pierce Fab Preparation Kit (Thermo Scientific Pierce No. 44985). All of the following manipulations were carried out using a Biacore® 3000 (manufactured by GE Healthcare Bio-Sciences). Recombinant huDR3-huFc protein was immobilized on a CM5 sensor chip (manufactured by GE Healthcare Bio-Sciences) by an amine coupling chemistry.
(§2) In particular, the kinetic assay was carried out by immobilizing on the chip approximately 2000 resonance unit (RU) of recombinant protein, in order to achieve a medium protein immobilization level. Thereafter, the anti-DR3 antibody Fab fragments, diluted from 12 nM concentration in five steps, were allowed to run at a flow rate of 30 μL/min onto the chip for 120 seconds. The dissociation time was 300 seconds and the binding curves were measured at 25° C.
(§3) Regeneration was performed with glycine-HCl, pH 1.5, 60 seconds. The raw data were double referenced by subtraction of the signals from a reference flow cell without captured ligand and a buffer blank. The sensorgram corresponding to each concentration was obtained. The analysis was carried out using a 1:1 Langmuir fit model, using the analysis software attached to the apparatus, Biacore® 3000 Evaluation software (manufactured by Biacore), thereby calculating an association rate constant ka [1/Ms] and a dissociation rate constant kd [1/s] for the recombinant huDR3-huFc protein.
In general terms: SPR reads the build-up and loss of mass on a sensor chip optically.

For experiment [2], the target named is T1, recombinant human DR3-human IgG1-Fc …. Put plainly: SPR (Biacore 3000), huDR3-huFc amine-coupled on CM5, Fab 12 to 0.375 nM, 1:1 Langmuir fit, 25 C; run 1. The protocol: as §1, §2, §3
Experiment [3] has the same target. As to the kind of experiment: SPR (Biacore 3000), huDR3-huFc on CM5, Fab as analyte; average KD, n = 2. The procedure: as §1, §2
(§4) Regeneration was performed with glycine-HCl, pH 1.5, 60 seconds. The raw data were double referenced by subtraction of the signals from a reference flow cell without captured ligand and a buffer blank. The sensorgram corresponding to each concentration was obtained. […]

Experiment [4] shares this target. As to the kind of experiment: SPR, Fab on immobilised DR3-Fc, same as Example 5; n = 3. The protocol: as §1, §2, §3
The target of experiment [5] is T2, death domain-deleted human DR3 (hDR3ΔDD) on CHO-K1 cells (human, UniProt Q93038 25-345).
T2 construct: also called CHO/DR3; human DR3-expressing CHO cells
T2 sequence: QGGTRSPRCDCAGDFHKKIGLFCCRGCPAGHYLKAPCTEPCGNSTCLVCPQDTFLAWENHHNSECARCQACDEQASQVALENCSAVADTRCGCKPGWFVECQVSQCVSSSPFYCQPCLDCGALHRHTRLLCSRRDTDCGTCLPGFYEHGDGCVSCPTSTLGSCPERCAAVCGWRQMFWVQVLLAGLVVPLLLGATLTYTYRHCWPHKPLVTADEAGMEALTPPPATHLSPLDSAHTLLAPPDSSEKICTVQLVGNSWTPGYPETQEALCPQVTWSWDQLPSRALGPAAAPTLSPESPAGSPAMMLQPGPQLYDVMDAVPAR
Put plainly: flow cytometry of hybridoma supernatant on human DR3-expressing CHO cells, anti-human IgG-PE. The protocol:
Supernatants of multiwell plates were screened by flow cytometric binding to human DR3-expressing CHO cells (hereinafter described as CHO/DR3, in case). Cells were incubated at 10,000/well in a 96-well round-bottom assay plate for 15 minutes at 4° C. with a neat supernatant of hybridoma. Cells were pelleted via centrifugation, and washed with 200 μL PBS/0.5% fetal calf serum. […] Cells were washed as described above, and resuspended in 200 μL PBS/0.5% fetal calf serum; >5000 events acquired on an LSR Fortessa flow cytometer (Beckton Dickinson). Results were analyzed using FlowJo (Treestar Inc.).

Experiment [6] has as its target T1, recombinant human DR3-human IgG1-Fc …. As to the kind of experiment: SPR, Fab on immobilised DR3-Fc, same as Example 5; n = 6. The procedure: as §1, §2, §3
For experiment [7] the target is unchanged. As to the kind of experiment: SPR, Fab on immobilised DR3-Fc, same as Example 5; n = 23. The procedure: as §1, §2, §4
The target is the same in experiment [8]. As to the kind of experiment: SPR, Fab on immobilised DR3-Fc. The procedure:
as §1, §2, §3
Target sequence in this assay (chain, as listed by the source limits assumed): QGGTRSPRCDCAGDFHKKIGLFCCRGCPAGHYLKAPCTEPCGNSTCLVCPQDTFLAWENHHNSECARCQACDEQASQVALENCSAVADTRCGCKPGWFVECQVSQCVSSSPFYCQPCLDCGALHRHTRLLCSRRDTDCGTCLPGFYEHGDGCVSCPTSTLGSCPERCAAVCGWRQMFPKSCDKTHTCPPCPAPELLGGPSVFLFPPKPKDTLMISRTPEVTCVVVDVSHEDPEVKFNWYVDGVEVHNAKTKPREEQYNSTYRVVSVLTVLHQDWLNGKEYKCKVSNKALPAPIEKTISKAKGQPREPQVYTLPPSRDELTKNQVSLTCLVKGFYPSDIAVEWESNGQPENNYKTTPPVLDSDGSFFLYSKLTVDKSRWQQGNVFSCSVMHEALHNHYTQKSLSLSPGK

Ten molecules from patent US20170190781A1 (Kyowa Kirin, published 2017) can be followed below.

Where a chain is given by its changes, count along the chain named. In names and notes the source's numbering stands.

B1: anti-DR3 monoclonal antibody 142S38B Fab fragment (Fab, V domains shown)
VH: EVQLLESGGGLVQPGGSLRLSCAASGFTVSRYAMSWVRQAPGKGLEWVSAISDSGGRTYYADSVMGRFTISRDTSKNTLYLQMNSLRAEDTAVYFCAKEFGDYLDYWGQGTLVTVSS
VL: EIVLTQSPATLSLSPGERATLSCRASQSVSSYLAWYQQKPGQAPRLLIYDASNRATGIPARFSGSGSGTDFTLTISSLEPEDFAVYYCQQRSNWWTFGQGTKVEIK
notes: Fab made with the Pierce Fab Preparation Kit from antibody 142S38B; Human kappa light chain; Only the variable domains are written
Usually Kd stands for the concentration at which binding is half-saturated. As usually defined, the koff is the first-order rate constant of dissociation. By kon is commonly meant the second-order rate constant of association. As to B1, the Kd in experiment [1] amounted to 0.162 nM; in experiment [2], 0.225 nM; in experiment [3] it was 0.194 nM; in experiment [4], 0.13 nM. Moreover, the koff in experiment [1] was found to be 5.46e-05 s⁻¹; in experiment [2] it was 5.37e-05 s⁻¹. Further, the kon is 337000 M⁻¹ s⁻¹ in experiment [1] and 239000 M⁻¹ s⁻¹ in experiment [2].

B2: anti-DR3 monoclonal antibody 142S38B (hybridoma supernatant) (antibody, V domains shown)
VH: B1 VH
VL: B1 VL
notes: Human antibody from a KM mouse hybridoma, detected with anti-human IgG-PE; Kappa light chain
Turning to B2, the binding result in experiment [5] is “binds”.

B3: anti-DR3 monoclonal antibody 142A2 Fab fragment (Fab, V domains shown)
VH: QVQLQQSGPGLVKPSQTLSLTCAISGDSVSGYSAAWNWIRQSPSRGLEWLGRTYYRSKWYNDYAVSVKSRITINPDTSKNQFSLQLNSVTPEDTAVYYCARDYYGSESYYNGGYYYYGMDVWGQGTTVTVSS
VL: AIQLTQSPSSLSASVGDRVTITCRASPGISSALAWYQQKPGKAPKLLMYDASSLESGVPSRFSGSGSGTDFTLTISSLQPEDFATYYCQQFNDYPLTFGGGTKVEIK
notes: Fab made with the Pierce Fab Preparation Kit from antibody 142A2; also called parental 142A2
Take B3: the Kd came to 3.99 nM in experiment [6], 1.5 nM in experiment [1], 3.79 nM in experiment [2] and 2.65 nM in experiment [3].

B4: 142A2-A51E/L54Q Fab (Fab, V domains shown)
VH: B3 VH
VL: B3 VL with A51E, L54Q
notes: Only the variable domains are written; also called A2-EQ
Regarding B4, in experiment [7], the Kd is 2.13 nM. Besides, the “fold increase of binding affinity against parental 142A2” value (“fold increase of binding affinity” below) in experiment [8] was around 1.9 fold.

B5: 142A2-G112R Fab (Fab, V domains shown)
VH: B3 VH with G112R
VL: B3 VL
notes: Only the variable domains are written
In the case of B5, the Kd in experiment [4] was 3.19 nM.

B6: 142A2-L54Q Fab (Fab, V domains shown)
VH: B3 VH
VL: B3 VL with L54Q
notes: Only the variable domains are written; also called A2-Q
Regarding B6, in experiment [4], the Kd was found to be 3.04 nM. The “fold increase of binding affinity” value in experiment [8] was around 1.2 fold.

B7: 142A2-G112R/A51E/L54Q Fab (Fab, V domains shown)
VH: B3 VH with G112R
VL: B3 VL with A51E, L54Q
notes: Only the variable domains are written; also called A2-EQR; 142A2-EQR
Regarding B7, in experiment [4], the Kd is 1.78 nM. The “fold increase of binding affinity” value in experiment [8] is around 2.2 fold.

B8: 142A2-A51E Fab (Fab, V domains shown)
VH: B3 VH
VL: B3 VL with A51E
notes: Only the variable domains are written; also called A2-E
For the molecule B8, the Kd in experiment [6] was 2.2 nM. In addition, the “fold increase of binding affinity” value in experiment [8] is around 1.8 fold.

B9: 142A2-G112R/L54Q Fab (Fab, V domains shown)
VH: B3 VH with G112R
VL: B3 VL with L54Q
notes: as for B5
For B9, in experiment [4], the Kd is 2.37 nM.

B10: 142A2-G112R/A51E Fab (Fab, V domains shown)
VH: B3 VH with G112R
VL: B3 VL with A51E
notes: Only the variable domains are written; also called A2-ER
Regarding B10, the Kd in experiment [6] amounted to 1.96 nM. Besides, the “fold increase of binding affinity” value in experiment [8] is around 2 fold.
